PMC9482650, “Quantitative fragmentomics allow affinity mapping of interactomes” (Nature Communications, 2022)

Columns and labels:
Test in all cases: holdup assay
Parameters in all cases: key: below the threshold = too weak to quantify, mostly under pKd 3.1 to 4
NHERF3_1, Q5T2W1 = target: T1, NHERF3_1, Q5T2W1
T1 sequence (Q5T2W1 4-100, limits assumed, looked up): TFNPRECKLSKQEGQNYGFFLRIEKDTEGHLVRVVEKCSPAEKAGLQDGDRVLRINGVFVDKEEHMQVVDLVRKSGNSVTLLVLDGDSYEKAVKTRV

DLG1_2, Q12959 = target: DLG1_2, Q12959
MAST2, Q6P0Q8 = target: MAST2, Q6P0Q8
GORASP2, Q9H8Y8 = target: GORASP2, Q9H8Y8
SCRIB_1, Q14160 = target: SCRIB_1, Q14160
SYNJ2BP, P57105 = target: T2, SYNJ2BP, P57105
T2 sequence (P57105 8-110, limits assumed, looked up): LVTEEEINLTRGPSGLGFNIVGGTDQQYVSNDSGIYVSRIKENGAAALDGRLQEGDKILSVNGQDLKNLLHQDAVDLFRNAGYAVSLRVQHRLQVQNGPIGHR

ARHGAP21, Q5T5U3 = target: T3, ARHGAP21, Q5T5U3
T3 sequence (Q5T5U3 45-169, limits assumed, looked up): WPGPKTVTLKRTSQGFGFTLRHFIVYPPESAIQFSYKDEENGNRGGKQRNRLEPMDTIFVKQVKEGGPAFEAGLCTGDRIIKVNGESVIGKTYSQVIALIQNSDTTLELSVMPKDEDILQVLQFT

GIPC2, Q8TF65 = target: GIPC2, Q8TF65
LNX1_2, Q8TBB1 = target: LNX1_2, Q8TBB1
DFNB31_2, Q9P202 = target: T4, DFNB31_2, Q9P202
T4 sequence (Q9P202 274-371, limits assumed, looked up): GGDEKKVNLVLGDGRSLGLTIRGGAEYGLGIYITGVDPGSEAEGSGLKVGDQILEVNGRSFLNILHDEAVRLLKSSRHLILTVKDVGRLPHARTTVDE

NHERF3_4, Q5T2W1 = target: T5, NHERF3_4, Q5T2W1
T5 sequence (Q5T2W1 373-468, limits assumed, looked up): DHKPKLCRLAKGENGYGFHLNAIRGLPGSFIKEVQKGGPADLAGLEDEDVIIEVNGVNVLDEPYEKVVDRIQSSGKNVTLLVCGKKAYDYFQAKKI

APBA3_1, O96018 = target: T6, APBA3_1, O96018
T6 sequence (O96018 389-490, limits assumed, looked up): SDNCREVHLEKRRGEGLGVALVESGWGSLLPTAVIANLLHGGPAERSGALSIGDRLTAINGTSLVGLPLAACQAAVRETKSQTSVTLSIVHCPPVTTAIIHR

RHPN1, Q8TCX5 = target: T7, RHPN1, Q8TCX5
T7 sequence (Q8TCX5 508-602, limits assumed, looked up): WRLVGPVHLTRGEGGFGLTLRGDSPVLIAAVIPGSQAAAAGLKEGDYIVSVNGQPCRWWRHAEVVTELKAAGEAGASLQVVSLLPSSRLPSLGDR

DLG4_2, P78352 = target: DLG4_2, P78352
FRMPD2_2, Q68DX3 = target: FRMPD2_2, Q68DX3
DLG3_3, Q92796 = target: T8, DLG3_3, Q92796
T8 sequence (Q92796 374-475, limits assumed, looked up): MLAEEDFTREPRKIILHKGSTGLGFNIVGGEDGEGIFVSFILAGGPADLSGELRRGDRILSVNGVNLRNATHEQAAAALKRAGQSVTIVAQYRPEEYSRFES

LNX2_3, Q8N448 = target: T9, LNX2_3, Q8N448
T9 sequence (Q8N448 463-564, limits assumed, looked up): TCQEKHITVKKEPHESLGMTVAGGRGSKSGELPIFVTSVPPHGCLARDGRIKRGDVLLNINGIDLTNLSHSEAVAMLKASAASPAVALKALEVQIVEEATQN

DLG4_1, P78352 = target: DLG4_1, P78352
DLG4_3, P78352 = target: DLG4_3, P78352
GRIP2_3, Q9C0E4 = target: GRIP2_3, Q9C0E4
NHERF4_4, Q86UT5 = target: NHERF4_4, Q86UT5
DLG5_1, Q8TDM6 = target: DLG5_1, Q8TDM6
GRIP2_6, Q9C0E4 = target: GRIP2_6, Q9C0E4
FRMPD4, Q14CM0 = target: FRMPD4, Q14CM0
SNX27, Q96L92 = target: SNX27, Q96L92
LRRC7, Q96NW7 = target: T10, LRRC7, Q96NW7
T10 sequence (Q96NW7 1440-1537, limits assumed, looked up): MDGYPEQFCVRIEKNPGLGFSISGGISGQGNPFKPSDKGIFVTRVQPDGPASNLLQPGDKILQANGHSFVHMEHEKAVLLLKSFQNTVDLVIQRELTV

MAGI3_2, Q5TCQ9 = target: MAGI3_2, Q5TCQ9
[1] = plain residues with an end cap or a label only (N-terminal biotin on a linker: ado-ado)
[2] = plain residues with an end cap or a label only (N-terminal biotin on a linker: ttds)

Chain of MAGI3_2, Q5TCQ9 (Q5TCQ9 398-503): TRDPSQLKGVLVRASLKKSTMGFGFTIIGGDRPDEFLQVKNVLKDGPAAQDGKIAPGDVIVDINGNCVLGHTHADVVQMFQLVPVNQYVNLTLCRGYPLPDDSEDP
Chain of GRIP2_6, Q9C0E4 (Q9C0E4 648-740): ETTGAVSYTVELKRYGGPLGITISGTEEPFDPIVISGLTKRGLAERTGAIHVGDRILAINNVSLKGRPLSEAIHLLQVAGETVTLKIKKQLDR
Chain of DLG4_1, P78352 (P78352 62-152): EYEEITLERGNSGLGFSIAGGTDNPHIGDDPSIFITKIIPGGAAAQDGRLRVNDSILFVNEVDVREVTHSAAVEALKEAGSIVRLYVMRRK
Chain of DLG4_3, P78352 (P78352 306-403): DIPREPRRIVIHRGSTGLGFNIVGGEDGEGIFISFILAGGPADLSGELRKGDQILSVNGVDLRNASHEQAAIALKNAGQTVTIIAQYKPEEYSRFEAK
Chain of GIPC2, Q8TF65 (Q8TF65 112-203): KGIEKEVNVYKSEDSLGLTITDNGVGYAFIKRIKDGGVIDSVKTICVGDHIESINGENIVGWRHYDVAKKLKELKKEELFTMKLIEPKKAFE
Chain of FRMPD2_2, Q68DX3 (Q68DX3 944-1038): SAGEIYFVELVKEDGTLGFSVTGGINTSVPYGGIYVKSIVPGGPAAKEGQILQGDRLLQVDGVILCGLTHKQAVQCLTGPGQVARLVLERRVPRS
Chain of NHERF4_4, Q86UT5 (Q86UT5 464-550): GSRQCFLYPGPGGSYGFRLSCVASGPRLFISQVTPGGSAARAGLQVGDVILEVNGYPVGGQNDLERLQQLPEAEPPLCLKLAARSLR
Chain of DLG1_2, Q12959 (Q12959 314-412): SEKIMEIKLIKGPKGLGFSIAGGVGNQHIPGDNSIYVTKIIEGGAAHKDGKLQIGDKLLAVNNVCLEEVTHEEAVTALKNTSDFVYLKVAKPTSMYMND
Chain of DLG4_2, P78352 (P78352 155-259): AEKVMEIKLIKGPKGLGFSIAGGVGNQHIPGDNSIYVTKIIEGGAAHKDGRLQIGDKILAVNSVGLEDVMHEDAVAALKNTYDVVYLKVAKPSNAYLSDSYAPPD
Chain of MAST2, Q6P0Q8 (Q6P0Q8 1099-1202): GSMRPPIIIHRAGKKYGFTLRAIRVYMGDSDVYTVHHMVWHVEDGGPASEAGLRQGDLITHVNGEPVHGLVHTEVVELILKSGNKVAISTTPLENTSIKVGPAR
Chain of SCRIB_1, Q14160 (Q14160 718-814): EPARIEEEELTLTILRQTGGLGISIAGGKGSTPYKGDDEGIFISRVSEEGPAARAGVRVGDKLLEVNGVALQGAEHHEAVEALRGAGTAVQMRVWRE
Chain of GRIP2_3, Q9C0E4 (Q9C0E4 238-339): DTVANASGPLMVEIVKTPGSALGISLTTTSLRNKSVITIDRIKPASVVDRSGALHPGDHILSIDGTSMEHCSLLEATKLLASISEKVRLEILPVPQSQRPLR
Chain of LNX1_2, Q8TBB1 (Q8TBB1 371-470): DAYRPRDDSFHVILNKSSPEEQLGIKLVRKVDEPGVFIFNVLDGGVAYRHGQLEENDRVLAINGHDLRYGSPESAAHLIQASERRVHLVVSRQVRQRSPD
Chain of DLG5_1, Q8TDM6 (Q8TDM6 617-713): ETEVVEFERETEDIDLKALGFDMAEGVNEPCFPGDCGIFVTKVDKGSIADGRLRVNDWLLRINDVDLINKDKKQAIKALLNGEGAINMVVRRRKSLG
Chain of FRMPD4, Q14CM0 (Q14CM0 67-160): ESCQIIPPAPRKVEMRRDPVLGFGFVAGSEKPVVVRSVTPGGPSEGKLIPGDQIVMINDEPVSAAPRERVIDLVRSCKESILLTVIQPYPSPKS

B1: U2AF2, P26368 (peptide)
chain: PDSYHRRDFW
pKd (NHERF3_1, Q5T2W1; [1]): below the threshold | pKd (DLG1_2, Q12959; [1]): below the threshold | pKd (MAST2, Q6P0Q8; [1]): below the threshold | pKd (GORASP2, Q9H8Y8; [1]): below the threshold | pKd (SCRIB_1, Q14160; [1]): below the threshold | pKd (SYNJ2BP, P57105; [1]): below the threshold | pKd (ARHGAP21, Q5T5U3; [1]): 4.08 | pKd (GIPC2, Q8TF65; [1]): below the threshold | pKd (LNX1_2, Q8TBB1; [1]): below the threshold | pKd (DFNB31_2, Q9P202; [1]): below the threshold | pKd (NHERF3_4, Q5T2W1; [1]): below the threshold | pKd (APBA3_1, O96018; [1]): below the threshold | pKd (RHPN1, Q8TCX5; [1]): below the threshold | pKd (DLG4_2, P78352; [1]): below the threshold | pKd (FRMPD2_2, Q68DX3; [1]): below the threshold | pKd (DLG3_3, Q92796; [1]): below the threshold | pKd (LNX2_3, Q8N448; [1]): below the threshold | pKd (DLG4_1, P78352; [1]): 3.62 | pKd (DLG4_3, P78352; [1]): below the threshold | pKd (GRIP2_3, Q9C0E4; [1]): below the threshold | pKd (NHERF4_4, Q86UT5; [1]): below the threshold | pKd (DLG5_1, Q8TDM6; [1]): below the threshold | pKd (GRIP2_6, Q9C0E4; [1]): below the threshold | pKd (FRMPD4, Q14CM0; [1]): 3.71 | pKd (SNX27, Q96L92; [1]): 3.61 | pKd (LRRC7, Q96NW7; [1]): below the threshold | pKd (MAGI3_2, Q5TCQ9; [1]): below the threshold

B2: GDA, Q9Y2T3 (peptide)
chain: KQVVPFSSSV
pKd (NHERF3_1, Q5T2W1; [2]): 4.31 | pKd (DLG1_2, Q12959; [2]): 4.38 | pKd (MAST2, Q6P0Q8; [2]): 4.83 | pKd (GORASP2, Q9H8Y8; [2]): below the threshold | pKd (SCRIB_1, Q14160; [2]): 3.51 | pKd (SYNJ2BP, P57105; [2]): 5 | pKd (ARHGAP21, Q5T5U3; [2]): below the threshold | pKd (GIPC2, Q8TF65; [2]): below the threshold | pKd (LNX1_2, Q8TBB1; [2]): below the threshold | pKd (DFNB31_2, Q9P202; [2]): below the threshold | pKd (NHERF3_4, Q5T2W1; [2]): below the threshold | pKd (APBA3_1, O96018; [2]): below the threshold | pKd (RHPN1, Q8TCX5; [2]): below the threshold | pKd (DLG4_2, P78352; [2]): 4.42 | pKd (FRMPD2_2, Q68DX3; [2]): below the threshold | pKd (DLG3_3, Q92796; [2]): below the threshold | pKd (LNX2_3, Q8N448; [2]): below the threshold | pKd (DLG4_1, P78352; [2]): 3.83 | pKd (DLG4_3, P78352; [2]): below the threshold | pKd (GRIP2_3, Q9C0E4; [2]): below the threshold | pKd (NHERF4_4, Q86UT5; [2]): below the threshold | pKd (DLG5_1, Q8TDM6; [2]): below the threshold | pKd (GRIP2_6, Q9C0E4; [2]): below the threshold | pKd (FRMPD4, Q14CM0; [2]): below the threshold | pKd (SNX27, Q96L92; [2]): 3.53 | pKd (LRRC7, Q96NW7; [2]): below the threshold | pKd (MAGI3_2, Q5TCQ9; [2]): 3.81

B3: ARHGAP6, O43182 (peptide)
chain: NPDALPETLV
pKd (NHERF3_1, Q5T2W1; [2]): 4.55 | pKd (DLG1_2, Q12959; [2]): 4.49 | pKd (MAST2, Q6P0Q8; [2]): 4.65 | pKd (GORASP2, Q9H8Y8; [2]): below the threshold | pKd (SCRIB_1, Q14160; [2]): below the threshold | pKd (SYNJ2BP, P57105; [2]): 4.06 | pKd (ARHGAP21, Q5T5U3; [2]): below the threshold | pKd (GIPC2, Q8TF65; [2]): 3.49 | pKd (LNX1_2, Q8TBB1; [2]): 3.73 | pKd (DFNB31_2, Q9P202; [2]): below the threshold | pKd (NHERF3_4, Q5T2W1; [2]): below the threshold | pKd (APBA3_1, O96018; [2]): below the threshold | pKd (RHPN1, Q8TCX5; [2]): 4.61 | pKd (DLG4_2, P78352; [2]): 4.42 | pKd (FRMPD2_2, Q68DX3; [2]): 4.99 | pKd (DLG3_3, Q92796; [2]): below the threshold | pKd (LNX2_3, Q8N448; [2]): below the threshold | pKd (DLG4_1, P78352; [2]): 4.13 | pKd (DLG4_3, P78352; [2]): 3.46 | pKd (GRIP2_3, Q9C0E4; [2]): below the threshold | pKd (NHERF4_4, Q86UT5; [2]): below the threshold | pKd (DLG5_1, Q8TDM6; [2]): below the threshold | pKd (GRIP2_6, Q9C0E4; [2]): below the threshold | pKd (FRMPD4, Q14CM0; [2]): below the threshold | pKd (SNX27, Q96L92; [2]): 4.7 | pKd (LRRC7, Q96NW7; [2]): below the threshold | pKd (MAGI3_2, Q5TCQ9; [2]): 4.6
